Measurements from patent US20230243836A1.

Tests used:
[1] = biological target: VISTA (V-Domain Ig Suppressor of T Cell Activation) expressed on human cells (human) (UniProt Q9H7M9); assay: cell-based or functional assay
[2] = biological target: T1, P-selectin glycoprotein ligand 1 (PSGL-1) expressed on human cells (human) (UniProt Q14242); assay: CAPTIREC (TRICEPS) ligand-receptor capture on naive human T cells, LC-MS/MS; enrichment against the anti-CD28 antibody control
T1 sequence: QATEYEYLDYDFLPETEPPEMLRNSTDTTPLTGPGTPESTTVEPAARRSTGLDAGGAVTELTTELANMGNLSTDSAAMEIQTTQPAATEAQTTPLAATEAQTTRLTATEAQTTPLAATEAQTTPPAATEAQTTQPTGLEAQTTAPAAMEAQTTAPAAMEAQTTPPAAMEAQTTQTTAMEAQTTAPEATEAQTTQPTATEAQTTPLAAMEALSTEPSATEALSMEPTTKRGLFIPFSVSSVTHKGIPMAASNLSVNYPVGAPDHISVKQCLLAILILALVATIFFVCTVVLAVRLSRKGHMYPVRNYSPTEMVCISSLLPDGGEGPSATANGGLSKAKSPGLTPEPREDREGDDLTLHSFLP

Sequence of VISTA (V-Domain Ig Suppressor of T Cell Activation) expressed on human cells (human) (Q9H7M9 33-311): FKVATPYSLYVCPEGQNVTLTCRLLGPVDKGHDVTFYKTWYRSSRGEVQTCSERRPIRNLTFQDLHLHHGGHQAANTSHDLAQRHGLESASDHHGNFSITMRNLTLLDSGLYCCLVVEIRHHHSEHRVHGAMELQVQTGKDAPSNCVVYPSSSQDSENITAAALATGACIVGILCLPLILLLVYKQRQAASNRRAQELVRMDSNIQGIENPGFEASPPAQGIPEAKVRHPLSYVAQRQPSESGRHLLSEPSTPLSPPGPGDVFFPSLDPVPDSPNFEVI
Sequence of VISTA-Fc fusion protein (chain): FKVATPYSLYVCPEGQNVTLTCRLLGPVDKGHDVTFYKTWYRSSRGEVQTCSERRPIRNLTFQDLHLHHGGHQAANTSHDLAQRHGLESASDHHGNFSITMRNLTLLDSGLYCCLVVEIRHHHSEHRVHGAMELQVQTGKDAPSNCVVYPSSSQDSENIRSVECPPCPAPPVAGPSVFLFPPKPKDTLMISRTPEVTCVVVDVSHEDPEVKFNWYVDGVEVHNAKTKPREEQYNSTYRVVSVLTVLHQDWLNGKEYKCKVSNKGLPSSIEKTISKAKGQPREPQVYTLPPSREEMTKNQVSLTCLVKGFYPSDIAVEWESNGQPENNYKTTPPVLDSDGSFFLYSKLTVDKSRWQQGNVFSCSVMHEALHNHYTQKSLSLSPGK

| fold decrease in IL-2 release from CD4+ T cells (72 h) [1] [fold] | Log2 FC (log2 fold change) [2] | Substance |
| --- | --- | --- |
| 2 |  | PSGL-1-Fc fusion protein (Example VIII) (from UniProt Q14242 18-320) |
|  | 2.33 | VISTA-Fc fusion protein |
